The values below come from the nanobody polyreactivity screen of Harvey et al. (2022).

The nature of the data set: yeast display, Sf9 membrane polyspecificity reagent, FACS + sequencing; frameworks hold sequencing errors. A digest of the protocol:
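Synthetic nanobody libraries on Saccharomyces cerevisiae BJ5465 were galactose-induced for 36–48 hours, stained 1 hour at 4 °C with 10% biotinylated, detergent-solubilized Sf9 membrane reagent and enriched on streptavidin microbeads. FACS then separated cells into low and high (top ~1%) gates by anti-HA (expression) and streptavidin (reagent binding) fluorescence. Genes were colony-PCR amplified, MiSeq 2 × 250 sequenced and CDR-length filtered. A clone's polyreactivity label is that of its gate of origin.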
For the sequence “QVQLVESGGGLVQAGGSLRLSCAASGRIFYYYAMGWYRQAPGKERELVAAITWNGTSTYYADSVKGRFTISRDNAKNTVYLQMNSLKPEDTAVYYCAAEGWVGAWWYVLDVRYDYWGQGTQVTVSS”, the “polyreactivity (PSR sort gate)” value is reported as “low polyreactivity”. As to “QVQLVESGGGLVQAGGSLRLSCAASGRIFYYYAMGWYRQAPGKERELVATISRSGGSTYYADSVKGRFTISRDNAKNTVYLQMNSLKPEDTAVYYCAAGYGPSGYTRYYWGQGTQVTVSS”, the “polyreactivity (PSR sort gate)” value was “high polyreactivity”. Take “QVQLVESGGGLVQAGGSLRLSCAASGRIFYYYTMAWYRQAPGKERELVAAISWGGVNTDYADSVKGRFTISRDNAKNTVYLQMNSLKPEDTAVYYCAAGRWSVGTYDYWGQGTQVTVSS”: the “polyreactivity (PSR sort gate)” value is on record as “low polyreactivity”. Regarding “QVQLVESGGGLVQAGGSLRLSCAASGRIFYYYVMGWYRQAPGKERELVAAISSRGGCTYYADSVKGRFTISRDNAKNTVYLQMNSLKPEDTAVYYCAAEYGSISLRYPYYWRYDYWGQGTQVTVSS”, the “polyreactivity (PSR sort gate)” value is given as “high polyreactivity”. As for “QVQLVESGGGLVQAGGSLRLSCAASGRIGRNAMGWYRQAPVKERELVATISWSAGRTFYADSVKGRFTISRDNAKNTVYLQMNSLKPEDTAVYYCAAGGWQRGYYWGQGTQVTVSS”, the “polyreactivity (PSR sort gate)” value is recorded as “high polyreactivity”. For the sequence “QVQLVESGGGLVQAGGSLRLSCAASGRIGVNAMGWYRPAPGKERELVAAITGGASTYYADSVKGRFTISRDNAKNTVYLQMNSLKPEDTAVYYCNATGEYFGYLDLDYDYWGQGTQVTVSS”, the “polyreactivity (PSR sort gate)” value is given as “low polyreactivity”. “QVQLVESGGGLVQAGGSLRLSCAASGRIIAGYTMGWYRQAPGKERELVAAIRSSGRTHYADSVKGRFTISRDNAKNTVYLQMNSLKPEDTAVYYCAARWTYTFAYRFDYWGQGTQVTVSS”: the “polyreactivity (PSR sort gate)” value is on record as “high polyreactivity”.

For the sequence “QVQLVESGGGLVQAGGSLRLSCAASGRIIGHYAMGWYRQAPGKERDLVAAISRGGSTYYADSVKGRFTISRDNAKNTVYLQKTSLKPEDTAVYYCAVRSGRRNYDRPAFGYWGQGTQVTVSS”, the “polyreactivity (PSR sort gate)” value is reported as “high polyreactivity”. Regarding “QVQLVESGGGLVQAGGSLRLSCAASGRIIGINAMGWYRQAPGKERELVATITSGGDTNYADSVKGRFTISRDNAKNTVYLQMNSLKPEDTAVYYCNAESYGLGFGYDYWGQGTQVTVSS”, the “polyreactivity (PSR sort gate)” value is reported as “low polyreactivity”. Regarding “QVQLVESGGGLVQAGGSLRLSCAASGRIIGLYALGWYRQATGKERELVAAISSAGSTYYADSVKGRFTISRDNAKNTVYLQMNSLKPEDTAVYYCAKSRYRGYDYWGQGTQVTVSS”, the “polyreactivity (PSR sort gate)” value was “low polyreactivity”. For “QVQLVESGGGLVQAGGSLRLSCAASGRIIGYYAMGWYRQAPGKERELVAAISRRGGSTYYADSVKGRFTISRDNAKNTVYLQINSLKPEDTAVYYCNADRVLTRPRYDYWGQGTQVTVSS”, the “polyreactivity (PSR sort gate)” value is listed as “low polyreactivity”. With “QVQLVESGGGLVQAGGSLRLSCAASGRIIGYYAMGWYRQAPGKERELVATINYSGGRTYYADSVKGRFTISRDNAKNTVYLQMNSLKPEDTAVYYCNARESGRGSHDDYWGHGTQVTVSS” the entry was “high polyreactivity”; with “QVQLVESGGGLVQAGGSLRLSCAASGRIILLYTMGWYRQAPGKERELVAAISRSGGITYADSVKGRFTISRDNAKNTVYLQMNSLKPEDTAVYYCAKGGSSHAKGHFDYWGQGTQVTVSS”, “low polyreactivity”; with “QVQLVESGGGLVQAGGSLRLSCAASGRIILVYAMGWYRQAPGKERELVAAISSGGSTYYADSVKGRLTISRDNAKNTVYLQMNSLKPEDTAVYYCAARTAVGPIRSYWYDYWGQGTQVTVSS”, “low polyreactivity”. Regarding “QVQLVESGGGLVQAGGSLRLSCAASGRIIPYYAMGWYRQAPGKERELVAAISSSGGRTYYADSVKGRFTISRDNAKNTVYLQMNSLKPEDTAVYYCAAGFPTFGWDKVRFIMYYWGQGTQVTVSS”, the “polyreactivity (PSR sort gate)” value is “high polyreactivity”. Turning to “QVQLVESGGGLVQAGGSLRLSCAASGRIIQYNAMGWYRQAPGKERELVAAISWRSGRTYYADSVKGRFTISRDNAKNTVYLQMNSLKPEDTAVYYCAATSRTSWYGYWGQGTQVTVSS”, the “polyreactivity (PSR sort gate)” value is recorded as “high polyreactivity”. Regarding “QVQLVESGGGLVQAGGSLRLSCAASGRIIRGNAMGWYRQAPGKERELVAAISVRGGNTRYADSVKGRFTISRDNAKNSVYLQMNSLKPEDTAVYFCKKRSYLPEMEYWGQGSQVTVSS”, the “polyreactivity (PSR sort gate)” value was “low polyreactivity”. Turning to “QVQLVESGGGLVQAGGSLRLSCAASGRIISSNAMGWYRQAPGKEREFVAAISWRTGSTYYADSVKGRFTISRDNAKNTVYLQMNILKPEDTAVYYCNKRNGSYCYPYYYWGQGTQVTVSS”, the “polyreactivity (PSR sort gate)” value is recorded as “high polyreactivity”. With “QVQLVESGGGLVQAGGSLRLSCAASGRIISVYAMGWYRQAPGKERELVATITGGNTNYADSVKGRFTISRDNAKNTVYLQMNSLKPEDTAVYYCANQFLPSGVYYEYDSWGQGTQVTVSS”, the “polyreactivity (PSR sort gate)” value is reported as “low polyreactivity”.

Consider “QVQLVESGGGLVQAGGSLRLSCAASGRIITAYAMGWNRQAPGKEREFVAAINVSGGSTYYADSVKGRFTISRDNAKNTVYLQMNSLKPEDTAVYYCNADYYYYDIYWWKMDYWGQGTQVTVSS”, for which the “polyreactivity (PSR sort gate)” value is “low polyreactivity”.

Take “QVQLVESGGGLVQAGGSLRLSCAASGRIITINAMGWYRQAPGKERELVAAITGSAASTYYADSVKGRFTISRDNAKNTVYLQMNILKPEDTAVYYCAVDRRPYSGHGYDYWGQGTQVTVSS”: the “polyreactivity (PSR sort gate)” value is on record as “high polyreactivity”. On to “QVQLVESGGGLVQAGGSLRLSCAASGRIITKYNTMGCYRPATGIEMELVAAINRSAGSTYYADSVKGRFTISRDNAKNTVYLQMNSLKTEDTAVYYCAAKRGASYGSSLGAPRRHYDEYWGQGTQVTVSS”, for which the “polyreactivity (PSR sort gate)” value is “low polyreactivity”. For the sequence “QVQLVESGGGLVQAGGSLRLSCAASGRIITLYAMGWYRQAPGKERELVAGISRSGGSTYYADSVKGRFTISRDNAKNTVYLQMNSLKPEDTAVSYCNAVPIYYAWRRNKPFDYWGQGTQVTVSS”, the “polyreactivity (PSR sort gate)” value was “low polyreactivity”. Take “QVQLVESGGGLVQAGGSLRLSCAASGRIITYYAMGWYRQAPGKERELVAVISSVGGTYYADSVKGRFTISRDNAKNTVYLQMNSLKPEDTAVYYCAVGKIWSRRSSTSRFGYWGQGTQVTVSS”: the “polyreactivity (PSR sort gate)” value is “high polyreactivity”.

For “QVQLVESGGGLVQAGGSLRLSCAASGRIIVPYGMGWYRQAPGKERELVAAITTGGSTNYADSVKGRFTISRDNAKNTVYLQMNSLKPEDTAVYYCAVDWYPQLIYSFNSELEYWGQGTQVTVSS”, the “polyreactivity (PSR sort gate)” value is listed as “low polyreactivity”. Regarding “QVQLVESGGGLVQAGGSLRLSCAASGRIIWGYAMGWYRQAPGKERELVAGITYSGGSTYYADSVKGRFTISRDNAKNTVYLQMNSLKPEDTAVYYCAAAKSYRSGSWYEYWGQGTQVTVSS”, the “polyreactivity (PSR sort gate)” value is on record as “high polyreactivity”. With “QVQLVESGGGLVQAGGSLRLSCAASGRIIWINAMGWDRQAPGKERELVATITKRGGRTYYADSVKGRFTISRDNAKNTVYLQMNSLKPEDTAVYSCNTGHEARHSQYQGGVYQDMGYWGQGTQVTVSS”, the “polyreactivity (PSR sort gate)” value is given as “low polyreactivity”. For “QVQLVESGGGLVQAGGSLRLSCAASGRIIWPYAIGWYRQAPGKERELFATITSGGRTNYADSVKGRFTISRDNAKNTVYLQMNSLKPEDTAVYYCIADHWLYYGAGYDYWGQGTQVTVSS”, the “polyreactivity (PSR sort gate)” value was “low polyreactivity”.

Turning to “QVQLVESGGGLVQAGGSLRLSCAASGRIIYAYAMGWYRQAPGKERELVAAITIGGNTNYADSVKGRFTISRDNAKNTVYLQMNSLKPEDTAVYYCNARNYYYPWRGYHVVGSNDLGYWGQGTQVTVSS”, the “polyreactivity (PSR sort gate)” value is listed as “low polyreactivity”. With “QVQLVESGGGLVQAGGSLRLSCAASGRIIYGNTMGWYRQAPGKEREFVATITRSGGSTYYADSVKGRFTISRDNAKNTVYLQMNSLKPEDTAVYYCNAQPSVYYGRWGLNYVYWGQGTQVTVSS”, the “polyreactivity (PSR sort gate)” value is reported as “high polyreactivity”.

Take “QVQLVESGGGLVQAGGSLRLSCAASGRIIYSNGMGWYRQAPGKERELVAAISSGGSTYNADSVKGRFTISRDNAKNTVYLQMNSLKPEDTAVYYCAADIDYERDRYDYWGQGSQVTVSS”: the “polyreactivity (PSR sort gate)” value is listed as “low polyreactivity”.

“QVQLVESGGGLVQAGGSLRLSCAASGRIIYTYEMGWYRQAPGKERELVAAISGSGGSTYYADSVKGRFTISRDNSKTTLYLQMNRLKPEDTGVYYCNGAYYGYENLYKRGYWGQGSQVTVSS”: the “polyreactivity (PSR sort gate)” value is given as “high polyreactivity”. For “QVQLVESGGGLVQAGGSLRLSCAASGRILAGYAMGWYRQAPGKERELVAAITRGGTTYYADSVKGRFTISRDNAKNSVYLQMNSLKPEDTAVVYTVSSAQYDYCGQGTQVTVSS”, the “polyreactivity (PSR sort gate)” value is recorded as “low polyreactivity”. As to “QVQLVESGGGLVQAGGSLRLSCAASGRILAGYAMGWYRQAPGKERELVAVISVGTGSTYYADSVKGRFTISRDNAKNTVYLQMNSLKPEDTAVYYCAADPGPYKELEYGYWGQGTQVTVSS”, the “polyreactivity (PSR sort gate)” value is recorded as “low polyreactivity”. For the sequence “QVQLVESGGGLVQAGGSLRLSCAASGRILAIYAKGWYRQAPGKERELVAGITYSAGSTYYADSVKGRFTISRDNAKNTVYLQMNSLKPEDTAVYYCAALEYNSHRYGYDYWGQGTQVTVSS”, the “polyreactivity (PSR sort gate)” value was “low polyreactivity”. On to “QVQLVESGGGLVQAGGSLRLSCAASGRILASYAMGWYRQAPGKERELVAAIRYRGSTSYADSVKGRFTISRDNAKNTVYLQMNSLKPEDTAVYYCAAKWHVRGRGARYRYDYDYWGQGTQVTVSS”, for which the “polyreactivity (PSR sort gate)” value is reported as “low polyreactivity”.

In the case of “QVQLVESGGGLVQAGGSLRLSCAASGRILASYAMGWYRQAPGKERELVAAISRSGGSTYYADSVKGRFTISRDNAKNTVYLQMNSLKPEDTAVYYCAAKYPQKTPVNSYGILDSWGQGTQVTVSS”, the “polyreactivity (PSR sort gate)” value was “high polyreactivity”. Consider “QVQLVESGGGLVQAGGSLRLSCAASGRILAYYAMAWYRQAPGKERELVAAITSGGGSTYYADSVKGRFTISRDNAKNTVYLQMNSLKPEDTAVYYCAADAYVSSQPMDYWGQGSQVTVSS”, for which the “polyreactivity (PSR sort gate)” value is given as “high polyreactivity”. With “QVQLVESGGGLVQAGGSLRLSCAASGRILAYYAMGWYRQAPGKERELVARISGSGTSTYYADSVKGRFTISRDNAKNTVYLQMNSLKPEDTGVYYCAATYYRGGRSNGPAWWHEYWGQGTQVTVSS” the entry was “high polyreactivity”.

Take “QVQLVESGGGLVQAGGSLRLSCAASGRILAYYVMGWYRQAPGKERELVAGINWSGGSTYYADSVKGRFTISRDNAKHTFYLQMNSLKPEDTGVYNCAARFVGVRDGYYYWGQGTQVTVSS”: the “polyreactivity (PSR sort gate)” value is recorded as “high polyreactivity”.
